In IntAct's records for PubMed 25218446:

B1: Pre-mRNA leakage protein 1 (Saccharomyces cerevisiae), Q07930 (parent)
chain: MFHRRKRPYNTRNYGHDDKKFKSQYIDIMPDFSPSGLLELESNNKEGIALKHVEPQDAISPDNYMDMLGLEARDRTMYELVIYRKNDKDKGPWKRYDLNGRSCYLVGRELGHSLDTDLDDRTEIVVADIGIPEETSSKQHCVIQFRNVRGILKCYVMDLDSSNGTCLNNVVIPGARYIELRSGDVLTLSEFEEDNDYELIFMNV
partner: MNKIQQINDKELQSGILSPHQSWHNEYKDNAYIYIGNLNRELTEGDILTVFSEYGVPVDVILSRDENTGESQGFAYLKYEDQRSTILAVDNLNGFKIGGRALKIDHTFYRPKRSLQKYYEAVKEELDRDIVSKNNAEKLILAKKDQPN
B2: Pre-mRNA-splicing factor CWC26 (Saccharomyces cerevisiae), P46947 (parent)
chain: MALHQYLSETYGPTKPKNKTKKKKKESKSDANSDKTSLIVKERLSTLQQEQEKSGVASFSKFDKQKSKNIWKNLETNELSHAITHPSASSITGNESKNDLKEIRAQEPLVTVADKSKTRKTIYRDAQGHKIQEDSKIDDSSFSRSKYEDEKAAEREQYLKNLNMGDVQKLGINVDAHDKKKNQTASSLTIEDPAITFTHDKERTVKTSLLGRKLYDKPAPENRFAIMPGSRWDGVHRSNGFEEKWFAKQNEINEKKVQSYTLQEDY
partner: B1 partner

Variants of: B1
Conditions: with ist3_yeast IST3, P40565
MFHRRKRPYNTRNYGHDDKKFKSQYIDIMPDASPSGLLELESNNKEGIALKHVEPQDAISPDNYMDMLGLEARDRTMYELVIYRKNDKDKGPWKRYDLNGRSCYLVGRELGHSLDTDLDDRTEIVVADIGIPEETSSKQHCVIQFRNVRGILKCYVMDLDSSNGTCLNNVVIPGARYIELRSGDVLTLSEFEEDNDYELIFMNV [F32A] was tested, and the “effect of a mutation on the interaction” value was “disrupting interaction strength”. In the case of MFHRRKRPYNTRNYGHDDKKFKSQYIDIMPDFSPSGLAELESNNKEGIALKHVEPQDAISPDNYMDMLGLEARDRTMYELVIYRKNDKDKGPWKRYDLNGRSCYLVGRELGHSLDTDLDDRTEIVVADIGIPEETSSKQHCVIQFRNVRGILKCYVMDLDSSNGTCLNNVVIPGARYIELRSGDVLTLSEFEEDNDYELIFMNV [L38A], the “effect of a mutation on the interaction” value is reported as “decreasing interaction strength”.

Variants of: B2
Conditions: with ist3_yeast IST3, P40565
For R237A, the “effect of a mutation on the interaction” value was “disrupting interaction strength”. In the case of V235A, the “effect of a mutation on the interaction” value is reported as “decreasing interaction strength”. In the case of F224A, the “effect of a mutation on the interaction” value is reported as “decreasing interaction strength”. With W232A the “effect of a mutation on the interaction” value was “disrupting interaction strength”.
